Measurements published in patent publication US20230348603A1 (VERSEAU THERAPEUTICS, published 2023).

Tests used:
[1] = molecular target: T1, Cynomolgus Monkey VSIG4-L-His (cynomolgus monkey); experiment: SPR (FJB)
T1 construct: ECD with His tag; also called cyVSIG4-L; cyno VSIG4-L-His
T1 chain: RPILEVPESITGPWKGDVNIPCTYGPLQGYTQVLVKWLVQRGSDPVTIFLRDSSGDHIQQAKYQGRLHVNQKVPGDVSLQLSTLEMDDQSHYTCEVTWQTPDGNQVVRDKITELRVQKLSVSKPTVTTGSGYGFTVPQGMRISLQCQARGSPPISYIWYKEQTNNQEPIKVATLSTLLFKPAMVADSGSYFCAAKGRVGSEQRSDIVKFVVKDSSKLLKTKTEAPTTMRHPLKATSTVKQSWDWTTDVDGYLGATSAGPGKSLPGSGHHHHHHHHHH

Human VSIG4-L-Fc [2] = molecular target: T2, Human VSIG4-L-Fc (human); experiment: ligand blocking of C3b, IgG
T2 construct: also called hVSIG4-L-Fc; hVSIG4-L

Human VSIG4-L-Fc [3] = molecular target: T2, Human VSIG4-L-Fc; experiment: ligand blocking of iC3b, IgG
Human VSIG4-S-His = molecular target: T3, Human VSIG4-S-His (human, UniProt Q9Y279 20-283); experiment: BLI (Octet), IgG on AHC sensor
T3 construct: short isoform ECD with His tag; also called hVSIG4-S; VISG4-S-His
T3 sequence: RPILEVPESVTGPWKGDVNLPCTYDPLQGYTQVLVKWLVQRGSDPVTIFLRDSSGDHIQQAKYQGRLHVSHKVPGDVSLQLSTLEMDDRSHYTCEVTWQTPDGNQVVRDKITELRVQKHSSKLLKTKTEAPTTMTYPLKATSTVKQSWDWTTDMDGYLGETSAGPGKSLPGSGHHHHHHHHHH

Human VSIG4-L-Fc [4] = molecular target: T2, Human VSIG4-L-Fc; experiment: ELISA, IgG 50 nM on coated antigen;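 further: Mouse-human chimeric IgG4 antibodies incubated 1 h on plate-coated VSIG4 proteins, bound IgG detected with HRP-labelled anti-human IgG, irrelevant antibody and protein as specificity controls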
Human VSIG4-S-Fc = molecular target: T4, Human VSIG4-S-Fc (human); experiment: ELISA, IgG 50 nM on coated antigen;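 further: Mouse-human chimeric IgG4 antibodies incubated 1 h on plate-coated VSIG4 proteins, bound IgG detected with HRP-labelled anti-human IgG, irrelevant antibody and protein as specificity controls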
T4 construct: short isoform ECD fused to human Fc1; also called hVSIG4-S

[5] = molecular target: T1, Cynomolgus Monkey VSIG4-L-His; experiment: ELISA, IgG 50 nM on coated antigen;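 further: Mouse-human chimeric IgG4 antibodies incubated 1 h on plate-coated VSIG4 proteins, bound IgG detected with HRP-labelled anti-human IgG, irrelevant antibody and protein as specificity controls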
Mouse VSIG4-His = molecular target: T5, Mouse VSIG4-His (mouse); experiment: ELISA, IgG 50 nM on coated antigen;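 further: Mouse-human chimeric IgG4 antibodies incubated 1 h on plate-coated VSIG4 proteins, bound IgG detected with HRP-labelled anti-human IgG, irrelevant antibody and protein as specificity controls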
T5 construct: ECD with His tag; also called mVSIG4
T5 chain: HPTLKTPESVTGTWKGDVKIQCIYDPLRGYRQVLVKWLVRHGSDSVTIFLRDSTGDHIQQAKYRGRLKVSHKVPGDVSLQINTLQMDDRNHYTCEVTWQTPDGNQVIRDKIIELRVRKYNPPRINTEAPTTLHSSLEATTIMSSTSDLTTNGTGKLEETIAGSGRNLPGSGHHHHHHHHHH

Human VSIG4-L-His [6] = molecular target: T6, Human VSIG4-L-His (human, UniProt Q9Y279 20-283); experiment: BLI, IgG on AHC sensor, antigen 100 nM
T6 construct: long isoform ECD with His tag; also called hVSIG4-L
T6 sequence: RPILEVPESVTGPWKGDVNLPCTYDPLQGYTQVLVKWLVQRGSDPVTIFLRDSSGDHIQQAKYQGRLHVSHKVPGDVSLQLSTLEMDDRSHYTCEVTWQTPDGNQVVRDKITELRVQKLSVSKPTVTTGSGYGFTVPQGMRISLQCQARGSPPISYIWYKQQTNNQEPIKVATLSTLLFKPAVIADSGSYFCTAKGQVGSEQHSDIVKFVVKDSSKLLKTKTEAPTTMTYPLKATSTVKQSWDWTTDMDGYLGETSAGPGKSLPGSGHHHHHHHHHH

[7] = molecular target: T1, Cynomolgus Monkey VSIG4-L-His; experiment: BLI, IgG on AHC sensor, antigen 100 nM
Human VSIG4-L-His [8] = molecular target: T6, Human VSIG4-L-His; experiment: BLI (Octet), IgG on AHC sensor, antigen 100 nM
[9] = molecular target: T1, Cynomolgus Monkey VSIG4-L-His; experiment: BLI (Octet), IgG on AHC sensor, antigen 100 nM
[10] = molecular target: T7, Human VSIG4-L-CHO (human VSIG4 long isoform on CHO-K1 cells) (human, UniProt Q9Y279 20-399); experiment: flow cytometry, CHO-K1 cells expressing hVSIG4-L
T7 construct: also called hVSIG4-L (flow cytometry)
T7 sequence: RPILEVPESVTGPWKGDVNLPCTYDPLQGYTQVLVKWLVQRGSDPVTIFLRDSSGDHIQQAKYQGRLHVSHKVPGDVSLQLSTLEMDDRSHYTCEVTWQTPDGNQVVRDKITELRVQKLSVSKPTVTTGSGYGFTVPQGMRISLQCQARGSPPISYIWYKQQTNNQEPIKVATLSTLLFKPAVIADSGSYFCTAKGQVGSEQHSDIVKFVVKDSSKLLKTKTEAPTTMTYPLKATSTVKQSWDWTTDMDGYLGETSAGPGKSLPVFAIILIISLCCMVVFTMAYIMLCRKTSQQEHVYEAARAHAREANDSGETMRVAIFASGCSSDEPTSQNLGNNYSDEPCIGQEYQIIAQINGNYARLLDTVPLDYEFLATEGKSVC

Human VSIG4-L-Fc [11] = molecular target: T2, Human VSIG4-L-Fc; experiment: BLI binning on hVSIG4-L-Fc, competitor 12A08 first;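 further: normalized to binding of second antibody without first competitor antibody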
Human VSIG4-L-Fc [12] = molecular target: T2, Human VSIG4-L-Fc; experiment: BLI binning on hVSIG4-L-Fc, competitor 12A12 first;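 further: normalized to binding of second antibody without first competitor antibody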
Human VSIG4-L-Fc [13] = molecular target: T2, Human VSIG4-L-Fc; experiment: BLI binning on hVSIG4-L-Fc, competitor 13H11 first;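 further: normalized to binding of second antibody without first competitor antibody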
Human VSIG4-L-Fc [14] = molecular target: T2, Human VSIG4-L-Fc; experiment: BLI binning on hVSIG4-L-Fc, competitor 14C05 first;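 further: normalized to binding of second antibody without first competitor antibody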
Human VSIG4-L-Fc [15] = molecular target: T2, Human VSIG4-L-Fc; experiment: BLI binning on hVSIG4-L-Fc, competitor 14D12 first;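 further: normalized to binding of second antibody without first competitor antibody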
Human VSIG4-L-Fc [16] = molecular target: T2, Human VSIG4-L-Fc; experiment: BLI binning on hVSIG4-L-Fc, competitor 15A06 first;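 further: normalized to binding of second antibody without first competitor antibody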
Human VSIG4-L-Fc [17] = molecular target: T2, Human VSIG4-L-Fc; experiment: BLI binning on hVSIG4-L-Fc, competitor 15C03 first;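 further: normalized to binding of second antibody without first competitor antibody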
Human VSIG4-L-Fc [18] = molecular target: T2, Human VSIG4-L-Fc; experiment: BLI binning on hVSIG4-L-Fc, competitor 15C04 first;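 further: normalized to binding of second antibody without first competitor antibody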
Human VSIG4-L-Fc [19] = molecular target: T2, Human VSIG4-L-Fc; experiment: BLI binning on hVSIG4-L-Fc, competitor 16E03 first;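 further: normalized to binding of second antibody without first competitor antibody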
Human VSIG4-L-Fc [20] = molecular target: T2, Human VSIG4-L-Fc; experiment: BLI binning on hVSIG4-L-Fc, competitor 16E10 first;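 further: normalized to binding of second antibody without first competitor antibody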
Human VSIG4-L-Fc [21] = molecular target: T2, Human VSIG4-L-Fc; experiment: ligand competition ELISA (FJB), blocked ligand C3b
Human VSIG4-L-Fc [22] = molecular target: T2, Human VSIG4-L-Fc; experiment: ligand competition ELISA (FJB), blocked ligand iC3b
[23] = molecular target: T7, Human VSIG4-L-CHO (human VSIG4 long …); experiment: flow cytometry (FJB), 200 nM mAb, huVSIG4-L CHO-K1 cells
[24] = molecular target: T7, Human VSIG4-L-CHO (human VSIG4 long …); experiment: flow cytometry (FJB), 200 nM mAb, huVSIG4-L CHO-K1 over parental CHO-K1

T4 sequence (chain, as listed by the source limits assumed): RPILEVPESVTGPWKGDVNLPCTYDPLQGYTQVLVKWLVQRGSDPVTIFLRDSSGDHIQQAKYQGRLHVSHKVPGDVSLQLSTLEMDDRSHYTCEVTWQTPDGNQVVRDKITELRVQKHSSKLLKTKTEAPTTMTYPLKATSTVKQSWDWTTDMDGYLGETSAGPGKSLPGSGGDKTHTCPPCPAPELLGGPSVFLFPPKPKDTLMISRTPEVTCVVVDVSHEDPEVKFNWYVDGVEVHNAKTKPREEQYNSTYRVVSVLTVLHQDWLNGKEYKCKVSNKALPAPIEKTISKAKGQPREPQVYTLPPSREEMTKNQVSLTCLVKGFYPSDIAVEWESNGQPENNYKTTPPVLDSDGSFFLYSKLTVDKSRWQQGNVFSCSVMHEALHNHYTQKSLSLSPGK

B1: 13H11 mouse/human chimeric IgG4 (S228P) kappa (antibody, V domains shown)
VH: QIQLVQSGPELKKPGETVKISCKASGYTFENFGMNWVKQAPGKGLKWMGWINTYTGEATYADDFKGRFAFSLETSASTAYLQINNLKNEDTATYFCARDGGFRHFDVWGAGTTVTVSS
VL: ETTVTQSPASLSVATGEKVTIRCITSTDIDDDMNWYQQKPGEPPKLLISEGNTLRPGVPSRFSSSGYGTDFVFTIENMLSEDVADYYCLQSDNLPLTFGAGTKLELKR
- Kd [1]: 20.1 nM
- Percent Blocking C3b (Human VSIG4-L-Fc [2]): 75%
- Percent Blocking iC3b (Human VSIG4-L-Fc [3]): 78%
- binding result (Human VSIG4-S-His): no binding (tested: 100 nM)
- ELISA OD450 (Human VSIG4-L-Fc [4]): 4.27 OD450
- ELISA OD450 (Human VSIG4-S-Fc): 0.44 OD450
- ELISA OD450 [5]: 4.37 OD450
- ELISA OD450 (Mouse VSIG4-His): 0.048 OD450
- KD relative to parental chimera (Human VSIG4-L-His [6]): 1 fold
- KD relative to parental chimera [7]: 1 fold
- Kd (Human VSIG4-L-His [8]): 50.6 nM
- Kd [9]: 20.3 nM
- EC50 [10]: 1.2 nM
- normalized maximum binding nm shift (Human VSIG4-L-Fc [11]): 0.7 normalized
- normalized maximum binding nm shift (Human VSIG4-L-Fc [12]): 0.74 normalized
- normalized maximum binding nm shift (Human VSIG4-L-Fc [13]): 0.09 normalized
- normalized maximum binding nm shift (Human VSIG4-L-Fc [14]): 0.74 normalized
- normalized maximum binding nm shift (Human VSIG4-L-Fc [15]): 0.69 normalized
- normalized maximum binding nm shift (Human VSIG4-L-Fc [16]): 0.51 normalized
- normalized maximum binding nm shift (Human VSIG4-L-Fc [17]): 0.86 normalized
- normalized maximum binding nm shift (Human VSIG4-L-Fc [18]): 0.68 normalized
- normalized maximum binding nm shift (Human VSIG4-L-Fc [19]): 0.72 normalized
- normalized maximum binding nm shift (Human VSIG4-L-Fc [20]): 0.95 normalized
- IC50 (Human VSIG4-L-Fc [21]): ~7 nM
- IC50 (Human VSIG4-L-Fc [22]): 440 nM
- Binding (200 nM) MFI [23]: 54300 MFI
- Binding (200 nM) Fold-Over-Parental [24]: 140 fold
